The numbers were not newly measured in publication PMC4080432, which cites them from elsewhere.

Where two headings read alike, the source gives them in different places.

As a reminder, the Kd is a measure of binding affinity in units of concentration.

For data set [1], the target named is NapB (Escherichia coli) (UniProt P0ABL3).
For data set [2] the target is unchanged. The source holds these as a separate data set.

Sequence of UniProt P0ABL3 (P0ABL3 28-149): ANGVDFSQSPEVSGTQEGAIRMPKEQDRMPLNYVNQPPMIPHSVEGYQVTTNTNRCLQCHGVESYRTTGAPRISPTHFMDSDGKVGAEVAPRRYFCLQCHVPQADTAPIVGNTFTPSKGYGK

For the substance NapA (from UniProt P33937), the Kd with NapB (Escherichia coli) [1] was 32 µM; with NapB (Escherichia coli) [2] it was 15 µM.
